Source: paper PMC6145371

Molecular target: tau repeat domain (TauRD) conjugated to cerulean fluorescent protein (CFP) or yellow fluorescent protein (YFP)
Test: FRET or BRET; HEK293 biosensor cells with TauRD-CFP and TauRD-YFP; samples holding tau seeds (rTg4510 brain lysate 12 h, cell or microglia lysate 36 h, microglia conditioned media 72 h) added with 1% Lipofectamine; CFP to YFP FRET read by flow cytometry as integrated FRET density, normalised to cells given Lipofectamine only

normalized integrated FRET density (cells given rTg4510 microglia lysate) (normalized IFD): 308 | normalized integrated FRET density (cells given rTg4510 non-microglia cell lysate) (normalized IFD): 3570
Substance: tau repeat domain (TauRD) conjugated to cerulean fluorescent protein (CFP) or yellow fluorescent protein (YFP)
